The data set has as its target DNMT1 (human) (UniProt P26358). The data set is described as follows: EMSA. Conditions: 50 mM Tris-HCl pH 7.5, 100 mM KCl (or LiCl), 2.5 mM MgCl2, 0.1 mM ZnCl2, 2 mM BME, 0.05% NP40, 5% glycerol, 0.1 mg/mL BSA, 0.1 mg/mL yeast tRNA, 30 C 1 h. Background: Mobility shift assays separate free from complexed probe on a gel.

Chain of DNMT1 (human) (P26358 whole entry): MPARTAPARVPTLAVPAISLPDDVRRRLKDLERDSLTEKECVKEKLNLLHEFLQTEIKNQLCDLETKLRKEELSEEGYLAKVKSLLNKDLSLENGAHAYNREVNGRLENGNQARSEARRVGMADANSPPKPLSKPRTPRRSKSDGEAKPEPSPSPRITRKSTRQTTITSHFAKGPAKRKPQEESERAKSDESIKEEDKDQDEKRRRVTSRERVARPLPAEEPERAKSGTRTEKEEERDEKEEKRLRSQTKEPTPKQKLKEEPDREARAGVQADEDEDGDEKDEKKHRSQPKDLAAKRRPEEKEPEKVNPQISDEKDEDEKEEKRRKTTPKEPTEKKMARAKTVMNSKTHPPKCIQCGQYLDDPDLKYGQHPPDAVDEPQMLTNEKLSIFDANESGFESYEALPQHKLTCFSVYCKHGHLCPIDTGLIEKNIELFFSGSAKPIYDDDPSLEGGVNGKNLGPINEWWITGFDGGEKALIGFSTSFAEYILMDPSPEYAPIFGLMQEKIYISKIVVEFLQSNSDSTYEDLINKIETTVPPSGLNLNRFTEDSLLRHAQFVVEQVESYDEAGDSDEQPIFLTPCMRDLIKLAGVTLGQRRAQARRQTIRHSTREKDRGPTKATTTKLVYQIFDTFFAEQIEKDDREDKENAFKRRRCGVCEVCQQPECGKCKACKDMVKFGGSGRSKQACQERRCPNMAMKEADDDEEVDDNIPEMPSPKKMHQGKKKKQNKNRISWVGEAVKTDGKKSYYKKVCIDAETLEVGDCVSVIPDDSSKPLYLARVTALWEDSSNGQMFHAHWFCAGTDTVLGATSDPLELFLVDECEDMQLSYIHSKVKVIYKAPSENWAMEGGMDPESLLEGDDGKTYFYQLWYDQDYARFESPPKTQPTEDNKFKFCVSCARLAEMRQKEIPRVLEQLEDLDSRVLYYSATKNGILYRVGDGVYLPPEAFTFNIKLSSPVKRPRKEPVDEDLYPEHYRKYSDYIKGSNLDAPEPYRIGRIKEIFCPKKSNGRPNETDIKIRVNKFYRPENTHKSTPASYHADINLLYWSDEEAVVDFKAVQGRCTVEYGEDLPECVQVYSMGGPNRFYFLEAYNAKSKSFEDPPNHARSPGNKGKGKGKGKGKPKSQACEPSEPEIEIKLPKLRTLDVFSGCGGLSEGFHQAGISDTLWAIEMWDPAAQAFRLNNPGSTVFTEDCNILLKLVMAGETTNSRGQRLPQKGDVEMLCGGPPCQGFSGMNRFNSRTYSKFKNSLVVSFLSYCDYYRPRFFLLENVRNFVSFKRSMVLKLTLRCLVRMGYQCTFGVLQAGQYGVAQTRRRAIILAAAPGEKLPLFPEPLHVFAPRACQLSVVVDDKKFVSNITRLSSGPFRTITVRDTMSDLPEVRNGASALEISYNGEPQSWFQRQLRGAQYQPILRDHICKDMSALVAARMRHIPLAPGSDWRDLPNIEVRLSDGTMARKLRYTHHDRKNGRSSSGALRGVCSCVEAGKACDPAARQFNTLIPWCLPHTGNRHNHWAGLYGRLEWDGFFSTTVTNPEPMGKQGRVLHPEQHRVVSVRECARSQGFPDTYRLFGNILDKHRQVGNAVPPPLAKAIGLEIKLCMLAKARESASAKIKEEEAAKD

“UUCCACCCUCCCACCACCCCUACUUCCAGCACCAGGAAUCCCCAACACACACCAACAUCACAUUUUUAACACAUCAAUCUACCCACUCACACACACAACACACAACACUUACGGCCUCAGCCAACACAAAGCCAUCACACAAGACUCGCUUAUCAACUAACAAUUUAACGAUCAAAUCACACAACACUUUACGCAUUCCAGAUUUUAAAAACUUUUUAUUACACAUUAUAUCAAAUCUACCACCAUACAAGCAGAAAUUAAGACUUUACAUAACUUUUAUACAUUACAAUAUUUCUUCAAAUAAAUCUCUCCUAUAAACCA [DNMT1 3'UTR GU mutant (all GU/UG to AC/CA)]” yielded a binding signal (fold weaker than WT 3'UTR) of 2.

“UUCUGCCCUCCCGUCACCCCUGUUUCUGGCACCAGGAAUCCCCAACAUGCACUGACACCACACUUUUAACAUGUCAAUCUGUCCGUUCACACACACAACACACAACACCCACAGCCUUGGCUGACAUGAAGCCACCACACAAGGUUCGCUUAUCAACUAAUGAUUUAGUGAUCAAAUUGUGCAGUACUUUGUGCAUUCUGGAUUUUAAAAGUUUUUUAUUAUGCAUUAUAUCAAAUCUACCACUGUAUGAGUGGAAAUUAAGACUUUAUGUAGUUUUUAUAUGUUGUAAUAUUUCUUCAAAUAAAUCUCUCCUAUAAACCA” registered a binding signal (fold weaker than WT 3'UTR) of 3.

As usually defined, the Kd is the free concentration of one partner at which half of the binding sites on the other are occupied at equilibrium, for simple one-to-one binding. A higher Kd goes with lower affinity. “UUCUGCCCUCCCGUCACCCCUGUUUCUGGCACCAGGAAUCCCCAACAUGCACUGAUGUUGUGUUUUUAACAUGUCAAUCUGUCCGUUCACAUGUGUGGUACAUGGUGUUUGUGGCCUUGGCUGACAUGAAGCUGUUGUGUGAGGUUCGCUUAUCAACUAAUGAUUUAGUGAUCAAAUUGUGCAGUACUUUGUGCAUUCUGGAUUUUAAAAGUUUUUUAUUAUGCAUUAUAUCAAAUCUACCACUGUAUGAGUGGAAAUUAAGACUUUAUGUAGUUUUUAUAUGUUGUAAUAUUUCUUCAAAUAAAUCUCUCCUAUAAACCA [DNMT1 3'UTR WT]” came in with an equilibrium dissociation constant (Kd) of 69 nM.

For the origin of these results see paper PMC9945446.
